Experimental data: the supplement of paper PMC9876800

System: peptide library, one residue held at a place counted from the S/T acceptor
Experiment: relative phosphorylation of the sub-library (ratio to the mean residue at this position); higher = residue favoured
Conditions: human
How it was run: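 Purified recombinant kinases (human or orthologue constructs) were incubated in 384-well plates with biotinylated degenerate peptide sub-libraries, each fixing one residue at one position around a central Ser/Thr. Peptides were at 50 μM, with 50 μM ATP spiked with γ-32P-ATP, for 90 min under kinase-specific conditions. Spots on streptavidin membranes were phosphorimaged and quantified by densitometry. Relative sub-library phosphorylation is a ratio to the mean residue at that position.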

Chain of GAK, construct: aa24-359 (O14976 24-359, looked up): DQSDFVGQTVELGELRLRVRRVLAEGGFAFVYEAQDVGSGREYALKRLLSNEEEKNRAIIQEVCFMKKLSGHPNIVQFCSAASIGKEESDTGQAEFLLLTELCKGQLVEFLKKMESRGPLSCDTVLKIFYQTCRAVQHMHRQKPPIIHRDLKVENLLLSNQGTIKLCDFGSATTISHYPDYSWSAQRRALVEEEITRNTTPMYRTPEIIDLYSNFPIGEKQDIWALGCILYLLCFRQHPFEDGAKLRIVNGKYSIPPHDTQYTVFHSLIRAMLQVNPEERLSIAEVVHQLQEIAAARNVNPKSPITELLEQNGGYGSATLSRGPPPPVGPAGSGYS
Chain of CHEK1, construct: Full length (O14757 whole entry, looked up): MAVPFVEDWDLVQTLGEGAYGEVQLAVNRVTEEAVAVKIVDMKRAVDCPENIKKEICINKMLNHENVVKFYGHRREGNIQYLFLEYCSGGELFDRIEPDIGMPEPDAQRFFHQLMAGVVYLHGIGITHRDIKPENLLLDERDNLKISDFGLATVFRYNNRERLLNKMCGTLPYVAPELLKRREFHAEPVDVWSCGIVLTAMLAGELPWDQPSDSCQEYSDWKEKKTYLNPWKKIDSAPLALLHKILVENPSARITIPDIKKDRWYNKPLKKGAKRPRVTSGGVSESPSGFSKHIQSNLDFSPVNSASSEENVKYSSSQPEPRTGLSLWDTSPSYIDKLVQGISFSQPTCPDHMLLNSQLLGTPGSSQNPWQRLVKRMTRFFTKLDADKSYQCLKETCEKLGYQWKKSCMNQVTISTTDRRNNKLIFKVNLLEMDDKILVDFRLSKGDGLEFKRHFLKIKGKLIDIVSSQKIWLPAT

GAK, construct: aa24-359 (from UniProt O14976)
relative phosphorylation
Conditions | at +1 | at +2 | at +3 | at +4 | at -1 | at -2 | at -3 | at -4 | at -5
A fixed | 0.783 | 1.19 | 0.848 | 0.882 | 0.845 | 0.985 | 0.819 | 0.986 | 0.954
D fixed | 0.647 | 0.954 | 0.997 | 0.884 | 0.75 | 0.753 | 0.898 | 1.14 | 1.08
E fixed | 0.658 | 0.86 | 1.05 | 0.891 | 0.653 | 0.778 | 0.912 | 1.49 | 1.03
F fixed | 0.643 | 0.918 | 0.862 | 1.02 | 0.904 | 0.801 | 0.709 | 0.856 | 0.879
G fixed | 5.69 | 1.37 | 1.28 | 0.908 | 0.974 | 1.08 | 0.888 | 0.947 | 0.831
H fixed | 0.829 | 1.13 | 1.19 | 0.96 | 1.13 | 1.13 | 1.11 | 1.11 | 1.1
I fixed | 0.588 | 0.741 | 0.822 | 0.849 | 0.824 | 0.879 | 0.935 | 0.852 | 1.06
K fixed | 0.766 | 1.08 | 1.21 | 1.21 | 2.28 | 1.1 | 1.43 | 1.12 | 1.09
L fixed | 0.615 | 0.801 | 0.914 | 0.987 | 0.808 | 0.994 | 1.01 | 0.83 | 0.802
M fixed | 0.649 | 0.792 | 0.825 | 0.896 | 0.813 | 1.06 | 1.07 | 0.875 | 0.853
N fixed | 0.841 | 1.28 | 1.22 | 0.913 | 0.973 | 1.65 | 1.17 | 0.941 | 0.978
P fixed | 0.729 | 0.736 | 0.801 | 0.834 | 1.23 | 0.687 | 0.751 | 0.69 | 0.696
Q fixed | 0.696 | 1.1 | 1.05 | 1 | 0.965 | 1.22 | 1.16 | 1.04 | 0.853
R fixed | 0.833 | 1.26 | 1.2 | 1.34 | 1.3 | 1.28 | 1.43 | 1.14 | 1.15
V fixed | 0.59 | 0.902 | 0.974 | 0.882 | 0.914 | 0.86 | 0.901 | 0.959 | 1
W fixed | 0.769 | 1.03 | 0.82 | 1.59 | 0.803 | 0.848 | 0.849 | 1.03 | 1.05
Y fixed | 0.672 | 0.831 | 0.931 | 0.947 | 0.838 | 0.9 | 0.959 | 0.998 | 1.6
pThr fixed | 0.904 | 1.95 | 1.38 | 1.44 | 1.22 | 1.63 | 1.69 | 1.55 | 1.23
pTyr fixed | 0.674 | 0.963 | 0.94 | 0.772 | 0.884 | 1.09 | 1.27 | 1.23 | 1.27

CHEK1, construct: Full length (from UniProt O14757)
relative phosphorylation
Conditions | at +1 | at +2 | at +3 | at +4 | at -1 | at -2 | at -3 | at -4 | at -5
A fixed | 0.806 | 1.04 | 0.824 | 0.997 | 0.779 | 1.18 | 0.579 | 1.17 | 0.706
D fixed | 1.03 | 1.19 | 1.4 | 1.19 | 1.06 | 0.387 | 0.353 | 0.714 | 0.379
E fixed | 0.981 | 0.932 | 1.01 | 0.882 | 0.709 | 0.977 | 0.853 | 1.15 | 0.261
F fixed | 1.43 | 0.719 | 0.731 | 0.754 | 0.637 | 1.16 | 0.39 | 0.817 | 2.06
G fixed | 1.21 | 0.978 | 1.16 | 1.18 | 0.915 | 0.619 | 0.685 | 0.811 | 0.331
H fixed | 1.21 | 1.38 | 1.2 | 1.17 | 1.27 | 2.01 | 2.02 | 1.14 | 0.51
I fixed | 0.801 | 0.808 | 0.832 | 0.968 | 0.396 | 0.56 | 0.253 | 0.952 | 2.21
K fixed | 0.614 | 0.531 | 0.588 | 0.687 | 1.54 | 0.887 | 2.36 | 1.45 | 0.405
L fixed | 0.98 | 0.756 | 0.908 | 1.18 | 0.805 | 0.738 | 0.281 | 0.919 | 2.9
M fixed | 1.57 | 0.935 | 0.985 | 1.06 | 0.901 | 1.14 | 0.625 | 1.26 | 1.98
N fixed | 1.65 | 1.82 | 1.47 | 1.23 | 1.68 | 1.42 | 0.992 | 0.9 | 0.361
P fixed | 0.429 | 0.973 | 1.2 | 1.57 | 1.84 | 0.547 | 1.37 | 0.458 | 0.49
Q fixed | 1.19 | 1.36 | 1.15 | 1.12 | 1.36 | 1.17 | 0.995 | 1.07 | 0.422
R fixed | 0.599 | 0.692 | 0.57 | 0.547 | 0.98 | 0.895 | 3.45 | 1.41 | 0.759
V fixed | 0.686 | 0.96 | 0.802 | 0.713 | 0.48 | 0.701 | 0.323 | 1.05 | 1.25
W fixed | 0.94 | 1.01 | 1.18 | 0.874 | 0.682 | 1.2 | 0.857 | 0.829 | 1.32
Y fixed | 0.869 | 0.921 | 0.995 | 0.886 | 0.963 | 1.39 | 0.617 | 0.902 | 0.661
pThr fixed | 0.831 | 0.822 | 0.733 | 0.892 | 0.188 | 0.139 | 0.198 | 0.311 | 0.164
pTyr fixed | 0.821 | 1.17 | 0.94 | 0.812 | 0.495 | 0.382 | 0.193 | 0.343 | 0.443
